Test results: patent CN111690059A (WUHAN INST OF BIOLOGICAL PRODUCTS CO LTD, dated 2020)

How the values were obtained:
[1] = target: T1, SARS-CoV-2刺突蛋白S1的RBD结构域重组蛋白(Sino公司，货号40592-V05H) (SARS-CoV-2, UniProt P0DTC2 319-541); experiment: blocking ELISA, coated RBD, competitor His-tagged ACE2
T1 construct: domain: RBD结构域; also called RBD结构域的重组蛋白

[2] = target: T1, SARS-CoV-2刺突蛋白S1的RBD结构域重组蛋白(Sino公司，货号405 …); experiment: ELISA, coated RBD 1.0 μg/mL, goat anti-human IgG-HRP detection
[3] = target: T2, SARS-CoV-2刺突S1-His重组蛋白(Sino公司，货号:40591-V08H) (SARS-CoV-2, UniProt P0DTC2 16-685); experiment: ELISA, coated S1-His 1.0 μg/mL, goat anti-human IgG-HRP detection
T2 construct: domain: S1; also called S1蛋白; SARS-CoV-2刺突蛋白S1

[4] = target: T3, SARS-CoV-2刺突S1亚基蛋白(Sino公司，货号:40591-V02H) (SARS-CoV-2, UniProt P0DTC2 16-685); experiment: blocking ELISA, coated S1 subunit protein, competitor His-tagged ACE2
T3 construct: domain: S1; also called SARS-CoV-2(2019-nCoV)病毒的刺突蛋白S1

B1: 抗SARS-CoV-2的单克隆抗体1D7 (antibody, V domains shown)
VH: EVQLVESGGGWIQPGGSLRLSCAASGLTVSSNYMSWVRQAPGKGLEWVSVIYSGGSTYYADSVKGRFTISRDNSKNTLYLQMNSLRAEDTAVYYCARDLVVYGMDVWGQGTTVTVSS
VL: AIRMTQSPSSLSASVGDRVTITCRASQSISSYLNWYQQKPGKAPKLLIYAASSLQSGVPSRFSGSGSGTDFTLTISSLQPEDFATYYCQQSYSTLGMYTFGQGTKLEIK
notes: also called 1D7抗体; 人源抗SARS-CoV-2抗体1D7
With B1 the IC50 [1] was 4.1 nM, the EC50 [2] was 0.055 nM and the EC50 [3] was 0.092 nM. The IC50 [4] was 7.8 nM.
